The experiment addresses T1, integrin α5β1 on cells (human (endogenous in K562 and MCF10A), UniProt P08648 42-1049; P05556 21-798).
T1 construct: integrin α5 subunit, endogenous; integrin β1 subunit, endogenous; also called intact α5β1; cellular α5β1; source: endogenous, on K562 cells (flow cytometry) and on MCF10A Cas-mScarlet cells (TIRF microscopy)
The experiment can be described thus: flow cytometry on cells; competition: unlabelled competitor titrated against 5 nM CF647-NeoNectin on K562 cells, L15 medium with 1% BSA, 2 h at room temperature; KD = EC50/(1 + CL/KD,L). To be noted: one partner purified.

T1 sequence (P08648 42-1049, chain 1 of 2): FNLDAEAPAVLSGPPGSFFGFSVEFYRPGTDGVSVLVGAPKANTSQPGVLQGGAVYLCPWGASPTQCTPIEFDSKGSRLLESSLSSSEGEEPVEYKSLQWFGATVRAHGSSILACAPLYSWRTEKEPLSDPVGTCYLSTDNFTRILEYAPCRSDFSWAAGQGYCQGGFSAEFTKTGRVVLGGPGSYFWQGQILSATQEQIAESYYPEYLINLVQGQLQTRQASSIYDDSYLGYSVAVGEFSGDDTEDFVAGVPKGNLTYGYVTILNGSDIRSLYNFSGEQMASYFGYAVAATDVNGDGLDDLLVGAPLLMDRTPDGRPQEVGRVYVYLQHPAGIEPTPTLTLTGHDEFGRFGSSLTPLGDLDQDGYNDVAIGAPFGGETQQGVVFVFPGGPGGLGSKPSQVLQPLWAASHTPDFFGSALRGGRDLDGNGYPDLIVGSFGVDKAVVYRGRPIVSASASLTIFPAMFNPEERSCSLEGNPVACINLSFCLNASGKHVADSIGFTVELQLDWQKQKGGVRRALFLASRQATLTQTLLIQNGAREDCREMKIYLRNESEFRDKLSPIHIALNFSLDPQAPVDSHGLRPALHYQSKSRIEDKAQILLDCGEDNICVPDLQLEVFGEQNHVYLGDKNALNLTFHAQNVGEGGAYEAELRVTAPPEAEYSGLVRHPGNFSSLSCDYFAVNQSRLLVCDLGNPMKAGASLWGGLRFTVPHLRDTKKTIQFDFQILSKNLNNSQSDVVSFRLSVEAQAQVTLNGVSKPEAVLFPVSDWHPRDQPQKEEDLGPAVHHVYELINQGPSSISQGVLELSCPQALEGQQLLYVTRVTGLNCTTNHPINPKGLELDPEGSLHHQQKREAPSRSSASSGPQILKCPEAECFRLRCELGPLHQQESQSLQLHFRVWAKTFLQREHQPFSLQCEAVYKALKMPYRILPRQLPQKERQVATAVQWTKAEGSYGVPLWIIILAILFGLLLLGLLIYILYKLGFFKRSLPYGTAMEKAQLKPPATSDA
T1 sequence (P05556 21-798, chain 2 of 2): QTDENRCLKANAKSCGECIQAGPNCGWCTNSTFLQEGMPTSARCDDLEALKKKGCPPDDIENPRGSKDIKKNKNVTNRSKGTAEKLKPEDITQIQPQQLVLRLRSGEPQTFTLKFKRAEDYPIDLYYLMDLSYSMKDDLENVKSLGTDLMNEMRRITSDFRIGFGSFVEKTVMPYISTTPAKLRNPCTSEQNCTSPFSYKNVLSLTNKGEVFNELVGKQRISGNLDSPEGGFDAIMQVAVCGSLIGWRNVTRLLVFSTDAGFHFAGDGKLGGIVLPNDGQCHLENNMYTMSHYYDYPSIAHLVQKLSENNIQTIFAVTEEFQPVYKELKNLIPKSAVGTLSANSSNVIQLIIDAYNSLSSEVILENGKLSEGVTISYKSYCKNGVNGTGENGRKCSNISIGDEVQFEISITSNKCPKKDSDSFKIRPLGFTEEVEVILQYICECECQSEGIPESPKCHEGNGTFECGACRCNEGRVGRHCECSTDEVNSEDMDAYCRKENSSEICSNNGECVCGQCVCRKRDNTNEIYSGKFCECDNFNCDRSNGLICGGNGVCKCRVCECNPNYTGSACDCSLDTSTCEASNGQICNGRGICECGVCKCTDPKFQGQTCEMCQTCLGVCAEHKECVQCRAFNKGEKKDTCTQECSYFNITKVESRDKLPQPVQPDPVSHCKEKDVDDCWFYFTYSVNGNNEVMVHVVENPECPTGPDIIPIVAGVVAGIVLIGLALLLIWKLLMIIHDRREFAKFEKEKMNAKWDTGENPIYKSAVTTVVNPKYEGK

B1: RGD peptide (GRRGDGATGH) (peptide)
peptide: GRRGDGATGH
notes: source: synthetic peptide
In the case of B1, the dissociation constant (Kd) came out at 150 µM.

The values above are taken from paper PMC12392869 (Advanced Materials (Deerfield Beach, Fla.), 2025).
